B1: UBE2R2 (parent)
chain: DPQSGELPSERWNPTQNVRTILLS
B2: ADAMTS4 (parent)
chain: SFRKFRYGYNNVVTIPAGATHILV

Variants of: B1
Assay: protein stability index of a GFP-peptide fusion (GPS, HEK-293T) (PSI 1-6); higher = more stable
Conditions: c terminus: a fixed tail appended
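Further: lentivirally expressed fusions sorted by FACS into six bins by GFP to DsRed ratio, PSI derived from sequencing read proportions per bin multiplied by bin number.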

Protein stability index of substitutions, site by site:
Q16: S 3.58; T 4.14; V 3.11; W 2.54; Y 2.54
N17: A 3.06; D 3.99; E 3.56; F 2.75; G 4.3; H 3.04; I 2.24; K 3.23; L 2.54; M 2.39; P 4.18; Q 3.6; R 3.4; S 2.9; T 3.51; V 2.4; W 2.59; Y 2.38
V18: A 4.38; C 3.9; D 3.83; E 4.06; F 3.61; G 4; H 4; I 3.97; K 3.78; L 3.27; M 3.3; N 4; P 3.63; Q 4.2; R 4.14; S 3.92; T 4.04; W 3.24; Y 3.34
R19: A 3.61; C 3.05; D 4.43; E 4.76; F 2.6; G 3.7; H 3.43; I 2.41; K 3.95; L 2.61; M 2.86; N 4.5; P 3.87; Q 3.81; S 4.08; T 3.21; V 2.28; W 1.85; Y 2.11
T20: A 3.64; C 2.92; D 3.61; E 3.19; F 1.57; G 2.9; H 3.6; I 1.65; K 4.43; L 2.79; M 3.67; N 3.71; P 3.79; Q 3.76; R 3.32; S 4.1; V 2.05; W 2.93; Y 2.46
I21: A 5.11; C 4.33; D 4.6; E 4.53; F 3.96; G 4.81; H 4.49; K 4.61; L 3.96; M 4.12; N 4.6; P 4.3; Q 4.18; R 4.52; S 4.33; T 4.26; V 3.9; W 3.55; Y 3.14
L22: A 4.31; C 4.12; D 4.43; E 5.13; F 3.54; G 4.5; H 4.2; I 3.05; K 4.41; M 4.11; N 4.47; P 4.7; Q 4.25; R 4.29; S 3.88; T 4.1; V 3.42; W 2.44; Y 2.89
L23: A 4.23; C 4.63; D 4.91; E 4.47; F 3.44; G 3.77; H 4.09; I 3.17; K 4.74; M 3.7; N 4.87; P 4.34; Q 4.65; R 4.5; S 4.08; T 4.12; V 3.34; W 3.79; Y 3.22
S24: A 2.82; C 2.35; D 4.43; E 4.23; F 1.82; G 3.4; H 3.58; I 1.84; K 4.34; L 1.56; M 2.23; N 3.86; P 3.95; Q 4.07; R 3.16; T 3.14; V 2.81; W 1.61; Y 2.04

Variants of: B2
Assay: as above
Conditions: c terminus: a fixed tail appended

Protein stability index, by site and new letter:
S1: A 4.18; C 2.8; D 2.25; E 3.35; F 2.34; H 1.73; I 2.62; K 2.07; L 2.08; M 2.99; N 2

Reference: the supplement of paper PMC10567573
